Test: soluble on expression in E. coli; label from the status in PepcDB or PDB records
In the case of “MVAVKREFELSHVFKDVSKLEDGNTFYGPEEEHFNVQWRIVLIHQKEDVAVFLRYLHPKNEQAPWKIDSEFTLKLSNSSGKSVTKTGSDIWNSYDALGFCDVFEWDSLLKDYLIDDVIIIEVAVKIKNMSGIPKKKLKSFERSNEEFSDVILAVGDKKFFVLRKFLASHSTYFETLLLGNFAEADKSEVKLQDINSTDFQNLMEVRYGEYAIDEETVDGILHLAHLYDMPFPIKRCEEFLVDSSEKSTKEKLKVAKKYQLENLKASCLAKINTLEEIKAALAGDLDEMDPSVVHALFRKSLALH”, the “soluble on expression in E. coli” value is reported as “not soluble”.
For “MVAYPGPMPRSPSPGQTPDAPTSGGGSTDSTRQRIVAAAKEEFARHGIAGARVDRIAKQARTSKERVYAYFRSKEALYAHVAERETTALIEATQLDPADLPGYAGILFDHFAARPDHYRLITWGRLELAESADNTSGPLQATIAGKLDKLRDAQRIGLLDPAWDPVDVLALINQIAMTWAGQPEIAAAAADQAVDPSVTARRAALVTAVEHMFPRPDRDQRPNRLT”, the “soluble on expression in E. coli” value was “soluble”.
With “MVDIDSAVEAARRRGARRIVLQLPEGMLQYGLYIAKCFEEMLGGAAQVYLHADPTFGACDLHYGELDTTVRPDLIVHVGHSPYPAELAHEGLEPRGRVVYVRALSKSQLPLDALREAAGLLASRYGVRRVGIATTAQHTHLAEKAAEVLRGEGLEVAVPPGLRPYFGAAQVLGCDYRLARGVRADGFVYVGGGVFHPLGLYLATLKPVVQVDPYRGVSEDLTREGEKLYRSRLYRVSQSIGARRWGIIVGLKSGQYRPWLVEKLARAIESAGGEYLLVASEVTTLSQLVAIDNPWFEAFTVTSCPRLPTDDFWSYEKPVLTPGEAMMALEGRLEPYRFPWAAALEHHHHHH” the “soluble on expression in E. coli” value was “not soluble”.
With “MVDKDIHSEHWYHGLLPREDIKAMLRKNGDFLVRSTEPKAGEPRQYVLSAMQSEELEDAGVKHYVMRLNSSNQIFLEAKGFETIASLVNYYMSSKEPIKKLTVLKTPILKQPWEIEHSQVELTKKLGEGAFGEVWKGKLTLKNGNVENCAIKTAKLESLNKEQIKEIMREARLMRNLDHPNVVKFYGVGASQEPLYVIMELADCGALDSYLQKNPNLVPDKKMEMIYQAACGISYMHEKKLLHRDIAARNCLYGGGQVKIADFGLSREGISYVMDLTKKVPIRWLAPETLKAGIYSPKTDVFAFGIMAWEITENGKEPYPDMRVADVVGKVRNGYRMRFDPVFVDFRFGDYVTKHCWAENPADRVSMADVLRYLQTTFGMKPVVLSILSSNRSTEEEMKTMKPPMFSVKRNNKKKPK” the “soluble on expression in E. coli” value was “not soluble”.
With “MVDKGVKIKVDYIGKLESGDVFDTSIEEVAKEAGIYAPDREYEPLEFVVGEGQLIQGFEEAVLDMEVGDEKTVKIPAEKAYGNRNEMLIQKIPRDAFKEADFEPEEGMVILAEGIPATITEVTDNEVTLDFNHELAGKDLVFTIKIIEVVE” the “soluble on expression in E. coli” value was “soluble”.
With “MVDLNKYKRFVETHGMKIPVLSLEYEYQAYLKLGRVEKAETLRKWLNERKG” the “soluble on expression in E. coli” value was “not soluble”.
With “MVDPNEHKKAVKTQQQDDEQTFEAVARAWHTDNKKWSESHAERILKSLSDNIFPAIGGTHVANLKTRDLLTPIKSVERSGRLEVAKRLKQRVTAIMTYAVQNGLIDYNPAQDMAGAIMPGKVEHRLEHHHHHH” the “soluble on expression in E. coli” value was “not soluble”.
For “MVDVIVIGAGIGGLTAAALLQERGFSTVVFEKNRFPGGSCSSFEKGGYTFDAGASVFYGFCDDDAMGTLNLHSRIFRKLGIAVETIPDPVQIHYHMPGGFDVPAWFDRDRFLESLCRRFPHERTGIRKFYDELESVYEILNSLPAGSLEDVIHLGVVGARHPLKVMALGVKTLFSMGNVARRYISDKELLRFIDLEAYSWAVQDAVSTPLVNAGICLADRHHGGINYPVGGSGTIPAALVKGFEKFGGSIRFGSEVSKVIVKNGSAVGVRLSDGTEVSAKAVVSNATVWDTFSKLVDDPRLRIPDDRFIKAPSWFQIWLGVDGSIVPPGFHMHHIIVDDWSKYDELGGTIYFSAPSVLDPSLAPPGKHALHLFVTAETWQWEQYEYRSQEYKAAKEAFAKSLIARAERLLPGIQDATELMVTATPQSHARYLNRRDGSYGPLLKPGQNILLKPQNRTPIKNLFAAGDSTFPGQGVIAVTYSGVSCASYIARQLGKALDYLLEHHHHHH”, the “soluble on expression in E. coli” value was “not soluble”.
For “MVEFRNEVSHQWTRRHTLRKFRAGMLSRDSLCDADFVLVTASKFHGSRVPTPCPVCDSDQLRHVLWVYGESLGRASGSARTMEEIVTFAQSGKEFTVHTVEVCPDCRWNHLLNSVTAMPQ”, the “soluble on expression in E. coli” value was “not soluble”.
With “MVEIDFNKENEEDFSDPPGFVDDVTDDVLVPDVLHKKPTIDEFEDNCVFIAGIPVVGADRLGKLQSVLKKVLERLDPAVKLYIPPSPEGGCLGVLLTEWADQRSAQFAVKSLNGYAFDKNHTFTARSFKDMKQLEAPSDHWTTPEKQAYNDVGDLWWWLQNERCRDQFAISHDKLGVPTVGVFTNMKGNDPELAGDADKAERANWTETVFTWSPHGSYLSTIHKQGIILWGGKDYARAHRFAHTNVQYIDFSPWETYLVTYAAPEESNSWGDCEKDSLRIWDVRTGELKKAFSTFELTGRTQLPTWPFFRWSFDEKYFACLKAPEKDKLEREQKINGISIFESEKFELYEGRPVNIENIKQFEWSPTSTVLAYYSECTDAVPAEFGLLQVPSMQRLRSARVHNVADAQMFWQKSGKRLAFYTMRFKKKEYRETGEVKYVGGCQYHVDIFEIDKKDVSLMNLPLSEPFIHFDWDPEGDKFCVLVGNTAKATPQVYKIEANSHAPKLVSKLDAGVHFNEVQFAPKGGWLAVLAKVSAGGNVYFIDTSLSEAKRTNVIEHPLFNKGYWDPTGRYFVTCSTLGGRAGADLGYRIFTFQGRELCRKNLDRLAQFKWRPRPPVKLSEQKQREIKKNLKKTAAKFIKQDDDEKCRASQEVVEKRRKIMAAFDIIRSRNREQLDATRDERISLRNGVDTEAQLDEDEFVDEEITIALSTSKTQAPLTEEEMRD” the “soluble on expression in E. coli” value was “not soluble”.
With “MVFDAIVVTDLQGFIIDWNKGSETLYGYSKEQAIGQPVNMLHVPGDTEHITSEVISAVENQGKWTGEIRMLHKDGHIGWIESMCVPIYGENYQMVGALGINRDITKRKKELEHHHHHH” the “soluble on expression in E. coli” value was “not soluble”.
In the case of “MVFYFKARPDAGDYTIFMGLDKFENEELIKYGFPEDVWFHVDKMSSAHVYLRLHRGQSFDDISEGVLEDCAQLVKANSIQGNKVNNVDVVYTPWSNLKKTASMDVGQVGFHNSKMVRTIRVEKRVNEIVNRLNKTKVERTPDLRAEREAVNAAERAERKQHLREKKKREEIDRLEKERQSEMRSYKGLMVTDKMTSNKDIASSNKSLQELEDDFM”, the “soluble on expression in E. coli” value is reported as “soluble”.
In the case of “MVFYGQPVTDDSTIRLSGQGVNTAFSVNLQAINHDVQKIAFTATCDGNQTLSQLGNLSIQVELNGSVLMKGDVETQGRQEAALILGELYRRNTEWKFRFVAQGFNGGLKPLAEHFGVVVEDEPAAPTPVPTPVSTPAPTAPPVAKPINLSKVSLTKEKPVISLTKRDDFGEIRVNLNWHRGGGAPAKGFLQGIFNSNKGIDLDLGAFVALNDGSRGVIQALGNNFGSYHSEPYVQLQGDDRTGDVSDGEWMHINGREWKHVKEVLIFAFIYEGVPSWGSTDGIVTINVPGQAPIETQMNEGNDRKNMCAVARLVNESGNIKVERINRYFSGHKEMDEAFGWGFRWKAGSK”, the “soluble on expression in E. coli” value is reported as “not soluble”.
In the case of “MVGLADVAVLYSGGKDSNYALYWALKSGLRVRYLVSMVSENEESYMYHTPNVELTSLQARALGIPIIKGFTKGEKEKEVEDLKNVLEGLKVDGIVAGALASRYQKERIENVARELGLKVYTPAWEKDPYQYMLEIIKLGFKVVFVAVSAYGLNESWLGRELNYKNLEELKKLSEKYGIHIAGEGGEFETFVLDMPFFKAKIVIDDAEKFWDGLSGKFIIKRAHLEWK”, the “soluble on expression in E. coli” value is reported as “soluble”.
In the case of “MVHDTFMKMPEVRRRRQPTHVLVAGGNQGLGNMTAFLRAARTSTLFRYSVLCGANKQLYHEIASWQLPHIRPLPYINSPEEMNQLYDEADAVITKPGGVTISELLHKRIPIFTIDCLPGQERINWQYLRRNGLIYHLAEPGNGERKMIRLLTDDVEKNRFFRRVSDYFAGVEKTGLEHHHHHH”, the “soluble on expression in E. coli” value is reported as “not soluble”.
With “MVHHDGTLQALITAYQKTPAFTDLAEATRKGYIRHIRQIEADFGDMPVQALADPRVRGEFLDWRDRLAQKSKRSADYAFSVLARILSWAHDRRKIPVNPCEKPGRLYTLEHHHHHH” the “soluble on expression in E. coli” value was “not soluble”.
With “MVHTADNAWRAHIPLMYREDFLCSSGVARWNEEFPRHCVVSQHDRHKTKSVLVILFLIAMRNIKNNRGTFTRIKDRLSSALKSPASLFRRSPEISLREDILSWKKSPHSLAASEYGGSDLLVQFLKQQTSDDYVDFWLESGEYRWTRTKPGRKRDIEAQRIYDKFVYGECPRKIAHLEKMCFVSRQGPTGRDVFICAQAYVGTNFPKDSYKKFLQDPIYLNLLKTVSSGATQLNE” the “soluble on expression in E. coli” value was “not soluble”.
With “MVIILRHVRVFNGVNECDIYLIGTAHVSKDSIEEVEKIISSVSPEGIAVELDDRRFFSLITNEEKKVDLKKVLKEGNFLKFFIYLILANSQKKIGESFGIKPGSEMKKAIEIASKYGLPIYLIDRDIDITLSRLMDRMTFKEKMKIFWELLNSDEEDLELDDDLLNDMVKNPEKFIKLLKEISPTIYEVLVDERDRFMAKRLFELSKNKNSLVAVVGAGHVEGIVRYLKKLENGNDIDLMELIKVKKRK” the “soluble on expression in E. coli” value was “not soluble”.
For “MVIRSVSRFLQGNNWPDVSKIYKTIVEKWRNENPDQNAHFSLEVTGPTGTSGVVTVKPSEEIGKSEKVSEEKSSEKPSIEVATTSLKRYPPAHMRVRDKLVGILSASGLRIGLPSSVSLVFSRSDLGSATSSTERICASSQEVASTMSLPDPSQSGITDSFPRVFKEFDFLEAEHDSVSETADSCFGWLSTMRPTREKDDERASIRSSLRNLSSGGQGGEEEEEEPEEDEESESHEEEENSESDDLPRKVEDDDLEEEDEDEEERTPCPSECCDDDREDVEMMLRQDIEAYASRGGSVAASSMADDDLRSRLTNNIVSISSQMTEHRHLEEENTSVDGSSVCAYSNASMLASEYYPNRTRSLRIQCSHHLDSRIEREFSMSVNEINESNDCNLLAYGTLLSTQLYKSSCGKVCALLRDASHILTNRAMSRSFASAQETLCNVVDIPFLFVTEQFLRNSPICQRLKFTLNELKEHWETFDERRDQCQKNTTNFGRKYKLFEILDFRKKNLKGINSLRSAYKLSALGGSTSSFSLTSELDLGKLLNKLVFQVKLMIDALKDMSDAVKNSTSSQTYSLSPAILEHHRELLMCASDDAASSVNSSLSRLNIDDSISRSQHSCDSLVLLLANKRYTQALQAVRQLRRTYGEEYGCCETVDVDVLLLLFCRSHSLKAWALVGASSEELTRQSELLREANAELASCLRRNAQSLQNMERMTPSMGSASMTESFAQLPSSSDHYD”, the “soluble on expression in E. coli” value was “not soluble”.
With “MVKLTSIAAGVAAIAATASATTTLAQSDERVNLVELGVYVSD” the “soluble on expression in E. coli” value was “not soluble”.
In the case of “MVKQISVFVENKPGRLAAVTEVLMKHNINIRAFTIADAGDFGIIRMVVDKTDEAYQALKEAGFTVRLTNVLAVEVEDKPGALHRIAKALGDAGVNIDYVYAFTSEKHKALIIFRVDDREKAKEVLEKLGVLFKGEIN”, the “soluble on expression in E. coli” value is reported as “not soluble”.
With “MVKRNKVIKQQSCPLIDTINVISRKWLLLVLNTIGNEGKLGFNSILNSIDDISPKALSDVLKTMEEMGLVKKVIVKSSPPRVEYSLTYEGKKLRKAVIPLFKWAAEHTGHYECPILQSNKLNKEEYS” the “soluble on expression in E. coli” value was “soluble”.
With “MVLEVNQAIVNESLQTEQVMEQLSSTVDVIVDNIEKYTNAARYGKGNNYALNNLRTAVQNQFPLVDWLLSTSLSQMIENAWQNGSLPTVTDEDGNVYLKAPLNVFTTPPKDTKGECCWLPFDIAACGGKAPINILCLKDCVDMLNHLLDRKLKVQSNDLIGFFKQAGQTYEEVRDFMNRESMAFYTANTIVNGQLDVTTPILKKFHGLMEILKRPEVFKMQGTNILAAFDSIGYRMDVLGGSFIFAAHPLTVASIKNAIRPNRYGILPDGWTINGESIFYKGAQVLPDKTVPVDVENGTGVIWQLSGESVGVFLGTTLRPAEDYIIRNQFTTTNDVNKGCATECDIYYNLGSVVTNNVARLAVITDVPLAAGINAYSLANLLDRVYVETLAP” the “soluble on expression in E. coli” value was “not soluble”.
